Data from PMC8527181.

Legend:
[1] = target: Ptr4CL (endogenous in SDX extract, member not told); assay: cross-linking; crude SDX extract (25 mM sodium phosphate buffer, pH 7.4) cross-linked with DSP, SDS-PAGE, western blot with PtrHCT1 and PtrHCT6 specific antibodies
[2] = target: Ptr4CL3-6 × His, recombinant (Populus trichocarpa); assay: cross-linking; recombinant Ptr4CL and PtrHCT, 200 nM each in PBS, DSP at 20-fold molar excess, room temperature 5 min, SDS-PAGE, western blot with Ptr4CL3 and PtrHCT1 antibodies
[3] = target: Ptr4CL5-6 × His, recombinant (Populus trichocarpa); assay: as above

A stoichiometry N (PtrHCT per Ptr4CL) [1] of 2 was found for “PtrHCT1, endogenous in SDX protein extract (enzyme)” in this work.
A stoichiometry N (PtrHCT per Ptr4CL) [2] of 2 and a stoichiometry N (PtrHCT per Ptr4CL) [3] of 2 were found for PtrHCT1-6 × His, recombinant (enzyme) in this work.
A stoichiometry N (PtrHCT per Ptr4CL) [1] of 2 was found for “PtrHCT6, endogenous in SDX protein extract (enzyme)” in this work.
A stoichiometry N (PtrHCT per Ptr4CL) [2] of 2 was found for PtrHCT6-6 × His, recombinant (enzyme) in this work.
